Assay results: article PMC9110426, “Cooperative regulation of PBI1 and MAPKs controls WRKY45 transcription factor in rice immunity”

Target: T1, Myc-WRKY45 (Oryza sativa (rice), UniProt Q5W6D6 1-326)
T1 sequence: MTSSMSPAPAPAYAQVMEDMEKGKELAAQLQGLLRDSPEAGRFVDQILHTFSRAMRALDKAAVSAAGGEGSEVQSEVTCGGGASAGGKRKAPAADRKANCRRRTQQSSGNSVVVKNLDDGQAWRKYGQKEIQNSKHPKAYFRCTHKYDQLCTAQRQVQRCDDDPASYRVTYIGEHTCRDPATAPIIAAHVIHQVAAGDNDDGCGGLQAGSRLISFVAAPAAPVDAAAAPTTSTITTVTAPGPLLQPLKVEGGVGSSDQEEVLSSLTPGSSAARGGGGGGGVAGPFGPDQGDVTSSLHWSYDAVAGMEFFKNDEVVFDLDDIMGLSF
Experiment: EMSA; 10 uM ZnCl2; poly(dI-dC); suppressed by excess unlabeled probe (40-fold in Methods, 50-fold in Supplementary Fig. 10c); 25 mM HEPES-KOH pH 7.6, 40 mM KCl, 0.1% Nonidet P-40, 10 uM ZnCl2, 1 mg/mL BSA, 10% glycerol, 1 mM DTT, 0.15 ug poly(dI-dC); 25 min at room temperature; 6% PAGE in Tris-borate at 4 C
Conditions: protein: ivt; tags: Myc; blunt

B1: DFA promoter W-box probe (dsDNA)
DNA 1: AGTTGGCAAAAGCTAAGTACAAGTCATTGTGTGGTCAATTGATCGACTGATCTGTTGCTC
DNA 2: GAGCAACAGATCAGTCGATCAATTGACCACACAATGACTTGTACTTAGCTTTTGCCAACT
B1: binds.
